From PMC7026407, “Multiple Growth Factor Targeting by Engineered Insulin-like Growth Factor Binding Protein-3 Augments EGF Receptor Tyrosine Kinase Inhibitor Efficacy” (Scientific Reports, 2020) come the findings set out here.

To fix the notation:
B1: PDGF BB (ligand, UniProt P01127 82-190, looked up)
chain: SLGSLTIAEPAMIAECKTRTEVFEISRRLIDRTNANFLVWPPCVEVQRCSGCCNNRNVQCRPTQVQLRPVQVRKIEIVRKKPIFKKATVTLEDHLACKCETVAAARPVT
notes: platelet-derived growth factor B chain; Homodimer of B chains by its name
B2: PDGF BB (ligand, UniProt P01127 82-190, looked up)
chain: B1 chain
notes: platelet-derived growth factor B chain
B3: VEGF-B (ligand, UniProt P49765 22-207, looked up)
chain: PVSQPDAPGHQRKVVSWIDVYTRATCQPREVVVPLTVELMGTVAKQLVPSCVTVQRCGGCCPDDGLECVPTGQHQVRMQILMIRYPSSQLGEMSLEEHSQCECRPKKKDSAVKPDRAATPHHRPQPRSVPGWDSAPGAPSPADITHPTPAPGPSAHAAPSTTSALTPGPAAAAADAAASSVAKGGA
notes: vascular endothelial growth factor B
B4: neuregulin-1 (ligand)
chain: SERKEGRGKGKGKKKERGSGKKPESAAGSQSPALPPRLKEMKSQESAAGSKLVLRCETSSEYSSLRFKWFKNGNELNRKNKPQNIKIQKKPGKSELRINKASLADSGEYMCKVISKLGNDSASANITIVESNEIITGMPASTEGAYVSSESPIRISVSTEGANTSSSTSTSTTGTSHLVKCAEKEKTFCVNGGECFMVKDLSNPSRYLCKCPNEFTGDRCQNYVMASFYKHLGIEFMEAEELYQK
modifications: R&D 377-HB, neuregulin extracellular domain, taken as NRG1-beta1 Ser2-Lys246; the paper prints only the catalogue number and 'extracellular domain'.
B5: IGFBP-7 (natural protein, UniProt Q16270 27-282, looked up)
chain: SSSDTCGPCEPASCPPLPPLGCLLGETRDACGCCPMCARGEGEPCGGGGAGRGYCAPGMECVKSRKRRKGKAGAAAGGPGVSGVCVCKSRYPVCGSDGTTYPSGCQLRAASQRAESRGEKAITQVSKGTCEQGPSIVTPPKDIWNVTGAQVYLSCEVIGIPTPVLIWNKVKRGHYGVQRTELLPGDRDNLAIQTRGGPEKHEVTGWVLVSPLSKEDAGEYECHASNSQGQASASAKITVVDALHEIPVKKGEGAEL
notes: source: bought (commercially available, carrier-free)
B6: D3 (Fc fusion)
chain: GASSAGLGPVVRCEPCDARALAQCAPPPAVCAELVREPGCGCCLTCALSEGQPCGIYTERCGSGLRCQPSPDEARPLQALLDGRGLCVNASAVSRPAPPAPGNASESEEDRSAGSVESPSVSSTHRVSDPKFHPKGHAKVDYESQSTDTQNFSSESKRETEYGPCRREMEDTLNHLKFLNVLSPRGVHIPNCDKKGFYKKKQCRPSKGRKRGFCWCVDKYGQPLPGYTTKGKEDVHCYSMQSK
modifications: Secreted Fc-fusion dimer; Fc omitted. Deletions 121-126, 166-174 and 180-185 are in 56662 precursor numbering (UniProt = construct + 2; the offset agrees with the H3t33-type deletion printed in …)

Common to all, as to conditions: both partners purified
Assay [1] addresses T1, 56662 (UniProt P17936-1 28-291).
T1 construct: the secretory signal peptide was derived from IGFBP-2; Fc portion of IgG1 added to the C terminus of IGFBP-3; called an Fc dimer; Probably the mature IGFBP-3 after removal of the IGFBP-2 signal peptide; also called IGFBP-3-Fc; BP3-Fc (unmodified IGFBP-3 Fc construct); source: 293 T cells, transfected; conditioned medium purified by proteinA Sepharose; not shown: Fc (IgG1), C-terminal, kept
Kind of assay: SPR; IGF binding protein or Fc fusion amine-coupled to a CM4 chip, growth factor as analyte; Biacore T100 or T200, HBS-P, BSA (0.2 mg/ml) or NaCl (0.65 M final) to reduce non-specific binding, 25 °C; 1:1 binding analysis.

Assay [2] deals with T1, 56662. Kind of assay: SPR; growth factor immobilised on a CM4 chip instead of the binding protein (asterisk in Table 1), binding protein or Fc fusion as analyte; HBS-P, 25 °C; regeneration with 4 M MgCl2 then 5 M guanidinium chloride; 1:1 binding analysis. Background: SPR reads the build-up and loss of mass on a sensor chip optically.
Assay [3] deals with T2, 56662 (UniProt P17936-1 28-291).
T2 construct: Fc dimer; also called BP3-Fc; IGFBP-3-Fc; source: 293T cells, transfected, conditioned medium, purified (protein A Sepharose); not shown: Fc (IgG1), C-terminal, kept
Kind of assay: SPR; growth factor amine-coupled to a CM4 chip, Fc fusion as analyte (values marked * in Table 1); Biacore T100/T200; HBS-P, with 0.2 mg/ml BSA or 0.65 M NaCl to reduce non-specific binding; 25 °C; 1:1 binding fit.

The target in another assay is T3, IGFBP-7 (UniProt Q16270 27-282).
T3 sequence (looked up): B5 chain
Kind of assay: SPR; IGF binding protein or Fc fusion amine-coupled to a CM4 chip, growth factor as analyte; Biacore T100/T200; HBS-P, with 0.2 mg/ml BSA or 0.65 M NaCl to reduce non-specific binding; 25 °C; 1:1 binding fit.

The target of a further assay is IGFBP-3 (UniProt P17936 28-291). The description is as above.
The next assay deals with T4, IGFBP-2 (UniProt P18065 36-325).
T4 sequence (looked up): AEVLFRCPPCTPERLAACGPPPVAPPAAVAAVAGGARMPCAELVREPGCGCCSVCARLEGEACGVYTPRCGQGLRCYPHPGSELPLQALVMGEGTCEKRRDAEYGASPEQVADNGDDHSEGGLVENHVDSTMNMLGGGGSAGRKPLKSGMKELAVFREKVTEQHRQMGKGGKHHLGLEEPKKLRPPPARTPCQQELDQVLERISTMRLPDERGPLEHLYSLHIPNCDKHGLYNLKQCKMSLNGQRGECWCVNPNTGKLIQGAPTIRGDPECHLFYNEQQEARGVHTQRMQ
The description is as above.

Assay [4] addresses T2, 56662. The description is as above.
The next assay deals with T5, Chimera A.
T5 construct: VEGF receptor 1 domain 2, first part of VEGF-trap; VEGF receptor 2 domain 3, second part of VEGF-trap; VEGF-trap inserted between the IGFBP-3 and the Fc domain; Fc dimer; also called chA; BP3-VEGF-trap-Fc; source: 293T cells, transfected, conditioned medium, purified (protein A Sepharose); not shown: Fc (IgG1), C-terminal, kept
Kind of assay: SPR; growth factor amine-coupled to a CM4 chip, Fc fusion as analyte (values marked * in Table 1); Biacore T100/T200; HBS-P, with 0.2 mg/ml BSA or 0.65 M NaCl to reduce non-specific binding; 25 °C; 1:1 binding fit.

In assay [5] the target is T6, hepatocyte growth factor (UniProt P14210 32-728).
T6 construct: hepatocyte growth factor, commercial; Mature HGF is a two-chain (alpha/beta) product of one precursor; the preparation is said to hold both processed and unprocessed forms; also called HGF; source: expressed in insect cells
As to the kind of experiment: SPR; IGF binding protein or Fc fusion amine-coupled to a CM4 chip, growth factor as analyte; Biacore T100 or T200, HBS-P, BSA (0.2 mg/ml) or NaCl (0.65 M final) to reduce non-specific binding, 25 °C; 1:1 binding analysis.
T6 sequence (P14210 32-728): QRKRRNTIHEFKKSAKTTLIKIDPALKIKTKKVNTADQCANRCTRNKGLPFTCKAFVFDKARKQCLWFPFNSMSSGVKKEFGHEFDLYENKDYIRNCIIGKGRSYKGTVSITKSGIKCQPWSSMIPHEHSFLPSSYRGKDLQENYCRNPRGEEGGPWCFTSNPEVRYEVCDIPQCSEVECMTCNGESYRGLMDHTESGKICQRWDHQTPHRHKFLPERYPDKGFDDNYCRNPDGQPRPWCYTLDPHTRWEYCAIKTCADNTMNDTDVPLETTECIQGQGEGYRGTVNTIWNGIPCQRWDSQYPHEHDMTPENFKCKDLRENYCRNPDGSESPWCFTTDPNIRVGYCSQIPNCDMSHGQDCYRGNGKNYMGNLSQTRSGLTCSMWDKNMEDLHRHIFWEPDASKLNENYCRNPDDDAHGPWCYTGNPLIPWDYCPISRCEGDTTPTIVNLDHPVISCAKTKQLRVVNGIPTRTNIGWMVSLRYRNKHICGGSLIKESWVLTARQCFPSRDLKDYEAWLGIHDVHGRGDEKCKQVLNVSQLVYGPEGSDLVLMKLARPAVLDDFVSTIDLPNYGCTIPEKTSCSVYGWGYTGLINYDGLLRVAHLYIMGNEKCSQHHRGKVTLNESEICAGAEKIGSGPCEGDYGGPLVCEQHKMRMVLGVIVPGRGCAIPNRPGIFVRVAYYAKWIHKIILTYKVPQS

Assay [6] addresses T7, hepatocyte growth factor (UniProt P14210 32-728).
T7 construct: hepatocyte growth factor; also called HGF; source: bought
As to the kind of experiment: SPR; growth factor amine-coupled to a CM4 chip, Fc fusion as analyte (values marked * in Table 1); Biacore T100/T200; HBS-P, with 0.2 mg/ml BSA or 0.65 M NaCl to reduce non-specific binding; 25 °C; 1:1 binding fit.
T7 sequence (P14210 32-728): as above

The next assay has as its target neuregulin-1 (UniProt Q02297 20-241). Described as above.
For the assay “VEGF-B”, the target named is B3. The assay is described as above.
The assay “PDGF BB” concerns the target B2. The assay is described as above.
The target of the next assay is T8, bFGF (UniProt P09038 143-288).
T8 construct: basic fibroblast growth factor; also called basic FGF
The assay is described as above.

Assay [7] deals with T9, insulin-like growth factor-1 (UniProt P05019 49-118).
T9 construct: insulin-like growth factor 1; also called IGF1; IGF-1
As to the kind of experiment: SPR; IGF binding protein or Fc fusion amine-coupled to a CM4 chip, growth factor as analyte; Biacore T100/T200; HBS-P, with 0.2 mg/ml BSA or 0.65 M NaCl to reduce non-specific binding; 25 °C; 1:1 binding fit.

Assay [8] concerns the target T10, insulin-like growth factor-2 (UniProt P01344 25-91).
T10 construct: insulin-like growth factor 2; also called IGF2; IGF-2
The description is as above.

Broadly, the Kd is a measure of binding affinity in units of concentration. Low values mean a tighter complex, high ones a looser complex. A word on the koff: it is the first-order rate constant of dissociation. A lower koff goes with a long-lived complex. The term kon denotes the rate constant with which the complex forms. A lower kon goes with slower complex formation.

T8 sequence (P09038 143-288): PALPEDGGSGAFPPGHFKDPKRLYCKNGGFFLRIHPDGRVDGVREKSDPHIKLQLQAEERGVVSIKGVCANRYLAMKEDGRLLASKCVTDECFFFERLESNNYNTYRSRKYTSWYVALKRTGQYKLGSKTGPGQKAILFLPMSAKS
T9 sequence (P05019 49-118): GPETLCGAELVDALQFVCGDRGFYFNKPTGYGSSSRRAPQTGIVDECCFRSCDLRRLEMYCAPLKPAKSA
Sequence of neuregulin-1 (Q02297 20-241): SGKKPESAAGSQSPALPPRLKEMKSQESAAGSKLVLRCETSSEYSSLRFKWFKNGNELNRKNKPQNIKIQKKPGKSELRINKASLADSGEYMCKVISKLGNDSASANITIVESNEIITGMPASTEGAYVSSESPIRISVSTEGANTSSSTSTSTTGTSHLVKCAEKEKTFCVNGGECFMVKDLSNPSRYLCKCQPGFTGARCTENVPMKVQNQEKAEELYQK
T5 sequence (Q02297 20-241, stated change not applied): as the sequence (Q02297 20-241) above
T10 sequence (P01344 25-91): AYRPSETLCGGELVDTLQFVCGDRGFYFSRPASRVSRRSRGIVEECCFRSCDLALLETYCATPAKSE

For B1, the Kd was determined as 0.52 nM with 56662 [1] and 4.19 nM in the assay with 56662 [2].

In the assay with 56662 [3], B2 displayed a koff of 0.000562 s⁻¹ and a kon of 259000 M⁻¹ s⁻¹.

B3: the koff with IGFBP-7 is 0.00277 s⁻¹; with IGFBP-3 it was 0.000751 s⁻¹; with IGFBP-2, 0.000441 s⁻¹; with 56662 [4], 0.000284 s⁻¹. In addition, the kon with IGFBP-7 came to 875000 M⁻¹ s⁻¹; with IGFBP-3, 96600 M⁻¹ s⁻¹; with IGFBP-2, 157000 M⁻¹ s⁻¹; with 56662 [4] it was 45000 M⁻¹ s⁻¹.

Take B4: the koff stood at 0.000291 s⁻¹ in the assay with Chimera A, 0.00443 s⁻¹ with 56662 [3], 0.00129 s⁻¹ with IGFBP-7 and 0.000883 s⁻¹ in the assay with IGFBP-3. Also, the kon with Chimera A was found to be 394000 M⁻¹ s⁻¹; with 56662 [3] it was 481000 M⁻¹ s⁻¹; in the assay with IGFBP-7, 800 M⁻¹ s⁻¹; in the assay with IGFBP-3 it was 425000 M⁻¹ s⁻¹.

Turning to B5, the binding result with hepatocyte growth factor [5] was “binds”.

In the case of B6, the koff in the assay with hepatocyte growth factor [6] was 0.000291 s⁻¹; in the assay with neuregulin-1, 0.00053 s⁻¹; in the assay with VEGF-B, 0.000445 s⁻¹; in the assay with PDGF BB it was 0.00175 s⁻¹; in the assay with bFGF, 0.000529 s⁻¹; in [7] it was 8.36e-05 s⁻¹. The molecule further showed a koff in [8] of 0.00185 s⁻¹. The kon turned out to be 110000 M⁻¹ s⁻¹ with hepatocyte growth factor [6]; 270000 M⁻¹ s⁻¹ with neuregulin-1; 25000 M⁻¹ s⁻¹ with VEGF-B; 550000 M⁻¹ s⁻¹ in the assay with PDGF BB; 161000 M⁻¹ s⁻¹ with bFGF; 163000 M⁻¹ s⁻¹ in assay [7]. Moreover, in assay [8], the kon worked out at 8.25e+06 M⁻¹ s⁻¹.
